Our source for the IC50 and Human pIR IC50 (nM) values is patent US20260021190A1.

Experiment [1] concerns the target T1, Human macrophage mannose receptor 1 (MRC1) (human) (UniProt P22897).
T1 sequence (looked up): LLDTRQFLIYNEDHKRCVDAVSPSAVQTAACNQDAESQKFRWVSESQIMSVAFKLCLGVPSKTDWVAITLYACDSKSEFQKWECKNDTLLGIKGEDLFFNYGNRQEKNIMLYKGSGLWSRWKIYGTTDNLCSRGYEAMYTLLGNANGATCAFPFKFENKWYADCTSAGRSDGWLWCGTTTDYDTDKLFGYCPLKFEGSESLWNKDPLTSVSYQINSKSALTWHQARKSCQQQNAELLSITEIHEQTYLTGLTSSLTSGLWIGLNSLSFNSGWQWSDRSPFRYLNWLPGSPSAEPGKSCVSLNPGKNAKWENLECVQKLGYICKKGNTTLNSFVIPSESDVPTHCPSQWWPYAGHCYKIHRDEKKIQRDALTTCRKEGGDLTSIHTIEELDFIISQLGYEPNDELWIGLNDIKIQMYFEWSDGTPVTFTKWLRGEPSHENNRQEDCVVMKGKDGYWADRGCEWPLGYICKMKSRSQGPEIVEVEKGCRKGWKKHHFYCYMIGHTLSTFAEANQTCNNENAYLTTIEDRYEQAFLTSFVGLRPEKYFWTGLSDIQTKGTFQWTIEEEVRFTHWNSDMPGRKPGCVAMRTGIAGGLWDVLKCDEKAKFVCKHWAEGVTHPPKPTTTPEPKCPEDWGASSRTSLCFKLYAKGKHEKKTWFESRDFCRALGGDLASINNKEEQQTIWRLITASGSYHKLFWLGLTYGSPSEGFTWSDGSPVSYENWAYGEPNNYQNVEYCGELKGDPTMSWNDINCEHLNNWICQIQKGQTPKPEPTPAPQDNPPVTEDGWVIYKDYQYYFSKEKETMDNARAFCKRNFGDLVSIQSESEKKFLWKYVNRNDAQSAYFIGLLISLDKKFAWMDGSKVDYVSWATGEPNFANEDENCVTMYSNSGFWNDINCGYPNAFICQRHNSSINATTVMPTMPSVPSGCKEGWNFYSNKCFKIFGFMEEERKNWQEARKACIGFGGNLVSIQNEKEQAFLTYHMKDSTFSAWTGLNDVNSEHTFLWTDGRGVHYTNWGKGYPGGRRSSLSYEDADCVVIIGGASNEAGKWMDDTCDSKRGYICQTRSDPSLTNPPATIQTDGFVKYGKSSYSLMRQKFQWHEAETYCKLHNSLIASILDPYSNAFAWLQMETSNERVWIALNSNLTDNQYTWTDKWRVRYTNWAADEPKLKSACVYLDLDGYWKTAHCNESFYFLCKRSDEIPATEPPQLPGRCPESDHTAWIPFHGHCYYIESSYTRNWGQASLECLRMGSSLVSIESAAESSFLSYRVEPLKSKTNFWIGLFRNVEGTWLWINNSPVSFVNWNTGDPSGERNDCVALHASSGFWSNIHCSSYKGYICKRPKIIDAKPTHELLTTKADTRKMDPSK
Put plainly: competition with Eu-mannosylated-BSA on captured human MRC1, DELFIA.

In experiment [2] the target is human insulin receptor type B (IR(B)) (human) (UniProt P06213). Put plainly: cell-based or functional assay.
Chain of UniProt P06213 (P06213 28-1382): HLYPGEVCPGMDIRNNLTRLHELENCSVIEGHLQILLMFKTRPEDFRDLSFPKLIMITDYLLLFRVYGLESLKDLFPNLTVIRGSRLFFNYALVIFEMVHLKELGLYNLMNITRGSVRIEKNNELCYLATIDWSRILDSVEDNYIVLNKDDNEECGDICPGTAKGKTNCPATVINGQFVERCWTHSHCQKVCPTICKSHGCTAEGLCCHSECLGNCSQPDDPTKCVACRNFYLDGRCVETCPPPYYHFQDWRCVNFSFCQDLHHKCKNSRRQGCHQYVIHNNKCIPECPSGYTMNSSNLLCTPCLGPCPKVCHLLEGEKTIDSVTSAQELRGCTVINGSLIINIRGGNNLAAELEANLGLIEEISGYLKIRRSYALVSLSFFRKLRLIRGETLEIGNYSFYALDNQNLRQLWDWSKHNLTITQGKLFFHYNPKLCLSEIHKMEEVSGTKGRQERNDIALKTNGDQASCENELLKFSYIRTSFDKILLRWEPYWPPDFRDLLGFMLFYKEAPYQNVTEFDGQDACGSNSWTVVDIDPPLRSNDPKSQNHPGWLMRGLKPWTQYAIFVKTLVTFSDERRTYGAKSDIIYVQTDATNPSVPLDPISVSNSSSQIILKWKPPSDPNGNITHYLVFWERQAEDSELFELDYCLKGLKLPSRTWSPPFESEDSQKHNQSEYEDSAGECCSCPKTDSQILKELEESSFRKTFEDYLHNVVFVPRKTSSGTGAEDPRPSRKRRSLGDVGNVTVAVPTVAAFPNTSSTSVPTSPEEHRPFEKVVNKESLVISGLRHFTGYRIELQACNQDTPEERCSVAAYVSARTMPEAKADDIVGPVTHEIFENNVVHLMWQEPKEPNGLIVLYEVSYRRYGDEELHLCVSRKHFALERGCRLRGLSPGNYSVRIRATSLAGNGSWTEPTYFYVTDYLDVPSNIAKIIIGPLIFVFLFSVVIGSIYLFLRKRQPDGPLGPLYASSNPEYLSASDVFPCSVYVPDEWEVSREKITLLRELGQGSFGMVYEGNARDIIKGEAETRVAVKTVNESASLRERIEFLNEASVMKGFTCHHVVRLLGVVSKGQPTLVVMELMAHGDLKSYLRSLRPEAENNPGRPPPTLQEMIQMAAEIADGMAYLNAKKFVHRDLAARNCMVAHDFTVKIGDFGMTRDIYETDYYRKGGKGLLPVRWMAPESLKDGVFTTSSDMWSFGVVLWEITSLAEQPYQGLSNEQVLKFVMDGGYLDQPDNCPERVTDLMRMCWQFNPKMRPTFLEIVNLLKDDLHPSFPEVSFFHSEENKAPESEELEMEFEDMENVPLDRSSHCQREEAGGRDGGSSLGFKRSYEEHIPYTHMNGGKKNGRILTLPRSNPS

Consider IOC-34 (Lispro) (ligand), for which, in experiment [1], the IC50 (commonly the midpoint of a concentration-inhibition curve) worked out at 82.7 nM. This substance also yielded a Human pIR IC50 (nM) in experiment [2] of 6.36 nM.
